Key:
Daudi cells = assay: CDC of Daudi cells, MTT analysis; format: cell-based, human; conditions: increased concentrations of MβCD
Method: CDC was induced by incubating B cells with anti-CD20 mAb (as described in Example 2). After 1-hour incubation (3-(4,5-dimethylthiazol-2-yl)-2,5-diphenyltetrazolium bromide (MTT) solution (5 mg/ml, Roche, Diagnostics, Almere, The Netherlands) was added to each well (flat-bottom microtiter plates; Nunc, Rochester, N.Y.). The reaction was stopped after 4 hours of incubation at 37° C. by the addition of 100 μl of 20% SDS (Roche Diagnostics, Almere, The Netherlands). After overnight incubation at 37° C. the absorbance of the samples was measured at 550-525 nm using an Elisa reader (EL808x, Biotek instruments, Highland park, Vt., USA). Cytotoxicity was expressed as a relative viability of the stimulated cells compared to cells incubated with medium only and was calculated as follows: relative viability=[(Ae−Ab)/(Ac−Ab)]*100, where Ab is the background absorbance, Ae is experimental absorbance of the lysed cells and Ac is the absorbance of untreated cells. The viability was expressed as percentage survival in comparison to non-cholesterol depleted cells (control).

[1] = test system: CD20 on freshly isolated B cells; assay: CD20/CD21 MFI ratio on freshly isolated B cells of atorvastatin-treated patients; format: in vivo, human; conditions: day 3 vs day 0 after single dose 80 mg atorvastatin; CD20 detected with the named mAb
Text: CD21 is a protein expressed by B cells. Its expression has been shown unaffected upon cholesterol depletion of a B cell line (Daudi) and for freshly isolated B cell enriched cell population of two independent donors (FIG. 26). Therefore, CD21 mAb binding is considered as an indicator for the amount of B cells present per staining. The MFI of CD20 mAb and CD21 mAb binding was identified by gating on viable cells in the lymphogate (FSC vs SSC), and subsequently on CD21+ cells when analyzing the MFI for the CD20 mAb. In order to be able to correlate the CD20 expression measured in between days CD20 mAb binding was quantitated relative to CD21 mAb binding within the same staining by calculating the ratio of MFI of CD20/CD21 mAb.
To determine CD20 and CD21 expression on B cells of hypercholesterolemic patients treated with atorvastatin PBMC were isolated out of whole blood drawn on day 0 (pre-treatment) and day 3 after treatment (as described in Example 7). Freshly isolated B cells were stained with different FITC-conjugated CD20 mAbs 2F2, 11B8, B1 (GlaxoSmithKline, Stevenage, United Kingdom) and PE-conjugated CD21 mAb (B-Ly4, BD Pharmingen, Franklin Lakes, N.J.) by 30 minutes incubation at room temperature in the dark. Cells were washed and mAb binding intensity (MFI) was analysed using a FACS Calibur (Becton Dickinson, Breda, The Netherlands).

CD20 on WIL2-S cells = target: T1, CD20 on WIL2-S cells (Homo sapiens, UniProt P11836); assay: Binding of anti-CD20 mAb to WIL2-S cells with varied cholesterol content; conditions: for affinity in binding to cholesterol-depleted cells: WIL2-S cells depleted with lovastatin; for binding affinity after addition of cholesterol: cholesterol added to non-treated control WIL2-S cells; for binding affinity after replenishing of cholesterol: lovastatin-treated WIL2-S cells replenished with cholesterol
T1 construct: endogenous in cells; host or cells: WIL2-S cells
T1 sequence (P11836 1-297): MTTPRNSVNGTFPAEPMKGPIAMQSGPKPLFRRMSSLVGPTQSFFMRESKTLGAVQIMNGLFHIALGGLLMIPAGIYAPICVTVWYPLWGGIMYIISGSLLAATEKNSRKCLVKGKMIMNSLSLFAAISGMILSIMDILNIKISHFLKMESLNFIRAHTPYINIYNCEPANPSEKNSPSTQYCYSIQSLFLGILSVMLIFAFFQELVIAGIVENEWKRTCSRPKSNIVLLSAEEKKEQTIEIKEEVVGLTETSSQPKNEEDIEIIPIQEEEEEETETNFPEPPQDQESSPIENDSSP
Method: To reconstitute cholesterol into the cell membrane of the cells or increase the cholesterol content of the untreated cells, cholesterol (ICN Biomedicals, Zoetermeer, The Netherlands) was added to the test medium in a final concentration of 5 mg/ml 2 hours prior to FACS analysis. The cells were incubated for 30 minutes at 37° C. under gentle shaking conditions, after which the cells were washed twice in PBS and resuspended to 2×10^6 viable cells/ml. For comparison MβCD- and lovastatin-treated cell lines treated with only diluent were included.
To confirm that lovastatin treatment might result in a change in CD20 mAb binding affinity lovastatin-treated RAJI cells were stained with a concentration curve of CD20 mAb. […] After washing with FACS buffer, polyclonal rabbit-anti-human IgG-FITC (DAKO A/S, Denmark) was added for 30 minutes at 4° C. to detect the bound CD20 mAb. Cells were washed again, resuspended in FACS buffer and analyzed on a flow cytometer. The mean fluorescence intensity (MFI) was taken as measure for CD20 binding of the mAb.
Binding of anti-CD20 mAb to CD20 on various B cell lines could be restored upon replenishment of the cell membrane cholesterol content via addition of cholesterol (according to procedure as described in Example 4) to either MβCD- or lovastatin-treated cells, as measured by FACS analysis (FIG. 3). This was also observed for WIL2-S cells for which binding affinity of anti-CD20 mAbs to CD20 was determined after reconstitution of cholesterol of cholesterol-depleted cells using flow cytometry (FIG. 13).

RAJI cells = assay: Rituximab-induced ADCC of RAJI cells, 51Cr-release assay with PBMC; format: cell-based, human; conditions: for EC50 for rituximab-mediated ADCC: E:T 100:1
Method: In the antibody-dependent cellular cytotoxicity (ADCC) assay target B cells are labelled with radioactive chromium (^51Cr), and incubated with antibody and effector cells. Upon lysis the target cells release ^51Cr which can be measured by separation of the supernatant from the cells and quantification using a scintillation counter.
RAJI cells (obtained from ECACC, Porton Down, United Kingdom) served as target cells, and were cultured in RPMI 1640 supplemented with 10% heat-inactivated cosmic calf serum (CCS), 1 U/ml penicillin, 1 μg/ml streptomycin, and 4 mM L-glutamine (all from Invitrogen, Carlsbad, Calif.). RAJI cells were either non-treated or cholesterol-depleted using lovastatin (10 μM) as described in Example 3, and re-suspended in test medium to a concentration of 2×10^6 viable cells/ml.
RAJI cells were labeled with 20 μCi^51Cr (Amersham Biosciences, Uppsala, Sweden) for 2 hours. After extensive washing in medium, the cells were adjusted to 2×10^5 cells/ml. […] Assays were started by adding ^51Cr-labeled RAH cells (50 μl) giving a final volume of 200 >l. For isolated effector cells, containing 20% NK cells, an effector to target (E:T) ratio of 100:1 was used. After incubation (4 hours, 37° C.), assays were stopped by centrifugation, and ^51Cr release from triplicates was measured in counts per minute (cpm) in a scintillation counter. Percentage of cellular cytotoxicity was calculated using the following formula:
% specific lysis=(experimental cpm−basal cpm)/(maximal cpm−basal cpm)×100
with maximal ^51Cr release determined by adding TritonX-100 (5% final concentration) to target cells, and basal release measured in the absence of sensitizing antibodies and effector cells.

Substance	mAb-induced CDC (cell survival) (Daudi cells)	average decrease in CD20/CD21 MFI ratio [1] [%]	affinity in binding to cholesterol-depleted cells (CD20 on WIL2-S cells)	binding affinity after addition of cholesterol (CD20 on WIL2-S cells)	binding affinity after replenishing of cholesterol (CD20 on WIL2-S cells)	EC50 for rituximab-mediated ADCC (RAJI cells; control (non-treated) RAJI cells) [µg/mL]	EC50 for rituximab-mediated ADCC (RAJI cells; lovastatin-treated (10 μM) RAJI cells) [µg/mL]	increase of EC50 for rituximab-mediated ADCC (RAJI cells; lovastatin-treated vs control cells) [fold]
2F2: human anti-CD20 mAb, VH SEQ ID NO:1, VL SEQ ID NO:2, disclosed in WO 2004/035607	diminished	18	reduced affinity	further improved the binding affinity	restores affinity to the level of non-treated cells			
rituximab: anti-CD20 antibody Rituxan/MabThera, type I			reduced affinity	further improved the binding affinity	restores affinity to the level of non-treated cells	0.024	0.082	~4

Source: patent publication US20110091473A1, “NOVEL ANTIBODY THERAPIES” (GENMAB A/S, priority 2007, published 2011)
